Experimental data reported in patent US20220411483A1 (Chugai, published 2022).
Numbering of substitutions follows the chain as printed. Each block holds one binder with its values, some of them ahead of it.

Experiments:
[1] = target: T1, FcγRIa extracellular domain, His tag (human, UniProt P12314 16-292); test: SPR, KD ratio
T1 construct: whole entry named; also called FcgRIa

[2] = target: T2, FcγRIIa R type extracellular domain, His tag (human, UniProt P12318 34-217); test: SPR, KD ratio
T2 construct: extracellular domain; also called FcgRIIaR
T2 sequence (looked up): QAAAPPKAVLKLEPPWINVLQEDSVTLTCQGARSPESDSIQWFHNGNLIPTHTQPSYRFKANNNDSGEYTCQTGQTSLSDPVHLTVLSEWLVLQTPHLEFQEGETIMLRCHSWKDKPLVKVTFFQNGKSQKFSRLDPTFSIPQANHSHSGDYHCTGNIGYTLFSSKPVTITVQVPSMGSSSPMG

[3] = target: T3, FcγRIIa H type extracellular domain, His tag (human, UniProt P12318 34-217); test: SPR, KD ratio
T3 construct: extracellular domain; also called FcgRIIaH
T3 sequence (looked up): T2 sequence (looked up) with R134H

[4] = target: T4, FcγRIIb extracellular domain, His tag (human, UniProt P31994 43-217); test: SPR, KD ratio
T4 construct: extracellular domain; also called FcgRIIb
T4 sequence (looked up): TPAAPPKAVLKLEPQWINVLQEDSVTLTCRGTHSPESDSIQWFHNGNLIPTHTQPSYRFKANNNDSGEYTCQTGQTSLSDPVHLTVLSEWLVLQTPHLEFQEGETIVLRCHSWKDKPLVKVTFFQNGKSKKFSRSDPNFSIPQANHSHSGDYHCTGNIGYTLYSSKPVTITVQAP

[5] = target: T5, FcγRIIIa V type extracellular domain, His tag (human, UniProt P08637 17-208); test: SPR, KD ratio
T5 construct: extracellular domain; also called FcgRIIIaV
T5 sequence (P08637 17-208 F176V): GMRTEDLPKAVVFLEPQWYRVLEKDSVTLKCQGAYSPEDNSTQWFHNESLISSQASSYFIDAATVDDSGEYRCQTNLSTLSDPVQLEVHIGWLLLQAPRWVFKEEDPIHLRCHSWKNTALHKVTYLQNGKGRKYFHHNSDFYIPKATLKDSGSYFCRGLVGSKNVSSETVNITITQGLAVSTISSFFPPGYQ

[6] = target: T2, FcγRIIa R type extracellular domain, …; test: SPR, bound amount per captured antibody
[7] = target: T4, FcγRIIb extracellular domain, His tag; test: SPR, bound amount per captured antibody
[8] = target: T6, FcγRIa extracellular domain with C-terminal His tag (human, UniProt P12314 16-292); test: SPR, antibody captured, FcgR analyte
T6 construct: also called FcgRIa; CD64; not shown: His tag at the C terminus
T6 sequence (P12314 16-292): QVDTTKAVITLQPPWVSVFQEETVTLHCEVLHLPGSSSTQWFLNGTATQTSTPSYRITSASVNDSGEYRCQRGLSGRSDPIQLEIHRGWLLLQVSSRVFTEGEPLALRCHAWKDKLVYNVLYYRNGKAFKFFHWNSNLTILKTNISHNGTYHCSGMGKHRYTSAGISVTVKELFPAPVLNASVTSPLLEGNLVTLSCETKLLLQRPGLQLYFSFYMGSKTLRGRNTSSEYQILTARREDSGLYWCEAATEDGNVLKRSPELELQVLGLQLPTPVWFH

[9] = target: T7, FcγRIIa R type extracellular domain with C-terminal His tag (human, UniProt P12318 34-217); test: SPR, antibody captured, FcgR analyte
T7 construct: extracellular domain; also called FcgRIIaR; not shown: His tag at the C terminus
T7 sequence (looked up): T2 sequence (looked up)

[10] = target: T8, FcγRIIa H type extracellular domain with C-terminal His tag (human, UniProt P12318 34-217); test: SPR, antibody captured, FcgR analyte
T8 construct: extracellular domain; also called FcgRIIaH; not shown: His tag at the C terminus
T8 sequence (looked up): T2 sequence (looked up) with R134H

[11] = target: T9, FcγRIIb extracellular domain with C-terminal His tag (human, UniProt P31994 43-217); test: SPR, antibody captured, FcgR analyte
T9 construct: extracellular domain; also called FcgRIIb; not shown: His tag at the C terminus
T9 sequence (looked up): T4 sequence (looked up)

[12] = target: T7, FcγRIIa R type extracellular domain …; test: SPR; KD of IL6R-B3/IL6R-L divided by KD of variant
[13] = target: T9, FcγRIIb extracellular domain with …; test: SPR; KD of IL6R-B3/IL6R-L divided by KD of variant

T1 sequence (P12314 16-292): as above

Relative FcgRIa-binding Activity [1]: 0.0005 fold of IL6R-G1d/IL6R-L
Relative FcgRIIaR-binding Activity [2]: 0.017 fold of IL6R-G1d/IL6R-L
Relative FcgRIIaH-binding Activity [3]: 0.01 fold of IL6R-G1d/IL6R-L
Relative FcgRIIb-binding Activity [4]: 1.75 fold of IL6R-G1d/IL6R-L
Relative FcgRIIIaV-binding Activity [5]: 0.004 fold of IL6R-G1d/IL6R-L
Relative FcgRIIaR-binding Activity [6]: 11.9 % of IL6R-G1d/IL6R-L
Relative FcgRIIb-binding Activity [7]: 165 % of IL6R-G1d/IL6R-L
B1: IL6R-P732/IL6R-L (antibody, human IgG1, kappa)
heavy: QVQLQESGPGLVKPSETLSLTCAVSGHSISHDHAWSWVRQPPGEGLEWIGFISYSGITNYNPSLQGRVTISRDNSKNTLYLQMNSLRAEDTAVYYCARSLARTTAMDYWGEGTLVTVSSASTKGPSVFPLAPSSKSTSGGTAALGCLVKDYFPEPVTVSWNSGALTSGVHTFPAVLQSSGLYSLSSVVTVPSSSLGTQTYICNVNHKPSNTKVDKKVEPKSCDKTHTCPPCPAPELFGGDSVMLFPPKPKDTLMISRTPEVTCVVVDVSPEDPEVKFNWYVDGVEVHNAKTKPREEQENSTYRVVSVLTVLHQDWLNGKEYKCKVHNKALPAPIEKTISKAKGQPREPQVYTLPPSRDELTKNQVSLTCLVKGFYPSDIAVEWESNGQPENNYKTTPPVLDSDGSFFLYSKLTVDKSRWQQGNVFSCSVMHEALHNHYTQKSLSLSP
light: not shown

Kd [8]: 1.3 nM
Kd [9]: 43 nM
Kd [10]: 870 nM
Kd [11]: 1 nM
Relative FcgRIIaR-binding Activity [12]: 25.2
Relative FcgRIIb-binding Activity [13]: 3090
B3: IL6R-BP489/IL6R-L (antibody, human IgG1, kappa, name in EU numbering)
heavy: QVQLQESGPGLVKPSETLSLTCAVSGHSISHDHAWSWVRQPPGEGLEWIGFISYSGITNYNPSLQGRVTISRDNSKNTLYLQMNSLRAEDTAVYYCARSLARTTAMDYWGEGTLVTVSSASTKGPSVFPLAPSSKSTSGGTAALGCLVKDYFPEPVTVSWNSGALTSGVHTFPAVLQSSGLYSLSSVVTVPSSSLGTQTYICNVNHKPSNTKVDKKVEPKSCDKTHTCPPCPAPDLLGDDSVFLFPPKPKDTLMISRTPEVTCVVIDVAEEDGEVKFNWYVDGVEVHNAKTKPREEQDNSTYRVVSVLTVLHQDWLNGKEYKCKVSNKALPRPIEKTISKAKGQPREPQVYTLPPSRDELTKNQVSLTCLVKGFYPSDIAVEWESNGQPENNYKTTPMVLDSDGSFFLYSKLTVDKSRWQQGNVFSCSVMHEALHNHYTQESLSLSP
light: not shown
notes: human IgG1

Kd [9]: 330 nM
Kd [10]: 4900 nM
Kd [11]: 9 nM
B5: IL6R-BP558/IL6R-L (antibody, human IgG1, kappa, name in EU numbering)
heavy: B3 heavy with D235E, A269G, E274D, D298Y, M398P
light: not shown
notes: human IgG1

Kd [8]: 1.2 nM
Kd [9]: 470 nM
Kd [10]: 3700 nM
Kd [11]: 18 nM
Relative FcgRIIaR-binding Activity [12]: 2.3
Relative FcgRIIb-binding Activity [13]: 168
B9: IL6R-BP496/IL6R-L (antibody, human IgG1, kappa, name in EU numbering)
heavy: B3 heavy with R332A, M398P
light: not shown
notes: human IgG1

Continued, binder first:

B2: IL6R-BP488/IL6R-L (antibody, human IgG1, kappa, name in EU numbering)
heavy: B3 heavy with M398P
light: not shown
notes: human IgG1
Kd [8]: 2.2 nM
Kd [9]: 74 nM
Kd [10]: 1600 nM
Kd [11]: 1.9 nM
Relative FcgRIIaR-binding Activity [12]: 14.6
Relative FcgRIIb-binding Activity [13]: 1670

B4: IL6R-BP510/IL6R-L (antibody, human IgG1, kappa, name in EU numbering)
heavy: B3 heavy with D235E, E274P, D298Y, M398P
light: not shown
notes: human IgG1
Kd [8]: 6 nM
Kd [10]: 4000 nM
Kd [11]: 3.8 nM

B6: IL6R-BP554/IL6R-L (antibody, human IgG1, kappa, name in EU numbering)
heavy: B3 heavy with D235E, E274D, D298Y, M398P
light: not shown
notes: human IgG1
Kd [8]: 8 nM
Kd [10]: 2300 nM

B7: IL6R-BP438/IL6R-L (antibody, human IgG1, kappa, name in EU numbering)
heavy: B3 heavy with I266V, D298Y, I334T, M398P
light: not shown
notes: human IgG1
Kd [9]: 180 nM
Kd [10]: 1600 nM

B8: IL6R-BP491/IL6R-L (antibody, human IgG1, kappa, name in EU numbering)
heavy: B3 heavy with D235E, M398P
light: not shown
notes: human IgG1
Kd [8]: 5.3 nM
Kd [9]: 120 nM
Kd [10]: 2200 nM
Kd [11]: 3 nM
Relative FcgRIIaR-binding Activity [12]: 9.2
Relative FcgRIIb-binding Activity [13]: 1020

B10: IL6R-BP487/IL6R-L (antibody, human IgG1, kappa, name in EU numbering)
heavy: B3 heavy with D298Y
light: not shown
notes: human IgG1
Kd [8]: 1.2 nM
Kd [9]: 39 nM
Kd [10]: 840 nM
Kd [11]: 1.2 nM
Relative FcgRIIaR-binding Activity [12]: 27.8
Relative FcgRIIb-binding Activity [13]: 2690
